Where two headings read alike, the source gives them in different places.
What was measured:
MCF-7 cells = test: In vitro anti-tumor activity (CCK-8 killing) on MCF-7 cells; format: cell-based; conditions: MCF-7 (TRAIL resistant type), 32-1000 ng/mL, both low and high concentrations, 96 hours, FIG. 6
Source text: (§1) 4 types of cells were selected to measure in vitro anti-tumor activity of the rTRAIL mutant and the MMAE conjugate: TRAIL sensitive type (NCI-H460), TRAIL insensitive type (Hela), TRAIL resistant type (MCF-7) and normal cells (HEK293). All of these 4 types of cells had TRAIL death receptor on their surfaces.
(§2) Hereinafter, TRAIL sensitive type NCI-H460 cell was taken as an example to give detailed description of the test procedure, including the following steps:
(§3) (1) Digesting the NCI-H460 cells into individual cells, followed by diluting to 1×10^4 cells/mL, spreading the cells on 96-well plate (100 μL for each well), and culturing the cells for 24 hours under normal condition.
(§4) (2) Diluting N109C, N109C-vcMMAE and S96C-vcMMAE with culture medium respectively, and adding them into the cell plate with final concentrations of 32, 63, 125, 250, 500, 1000 ng/mL for serving as the test groups, while using standard TRAIL (114-281) as the positive control group, using the buffer (used for dissolving the test sample, diluted with the culture medium in a same manner) as the negative control group, and using the culture medium (without adding any solution) as the blank control group. All the control groups and test groups were tested in triplicate. […]

[1] = test system: NCI-H460 tumor-bearing mice; conditions: athymic mice with NCI-H460 tumor; for distribution of fluorescence in mice: about 50 μg Cy5-labeled conjugate via tail vein
Description: N109C-vcMMAE was taken as an example, and the conjugate was tracked in real-time in mice by Fluorescent labeling method to observe tumor targeting ability of the conjugate.
Athymic mice weighing 20 g were selected and 10^7 NCI-H460 cells were injected subcutaneously in the armpit of one side of the forelegs.
Cy5, as a Near-IR-activated dye, was used as a fluorescent label, so as to facilitate the fluorescence to pass through animal skin and achieve the goal of real time vital observation. In terms of concrete method of Cy5 labeling, please refer to the instruction offered by the manufacturer (Lumiprobe).
200 μL sample containing about 50 μg Cy5-labeled conjugate was injected into the tumor-bearing mice via tail vein, while equal amount of normal saline was injected into the blank control group.
Small living animal imager (NightOWLN320) was used to observe distribution of fluorescence in mice every 24 hours. […] The mice were killed after 4th day, and heart, liver, spleen, lung, kidney and tumor tissues were isolated. […] The white arrow indicates tumor site.

Hela cells = test: In vitro anti-tumor activity (CCK-8 killing) on Hela cells; format: cell-based; conditions: Hela (TRAIL insensitive type), 32-1000 ng/mL, both low and high concentrations, 96 hours, FIG. 6
Source text: as §1, §2, §3, §4

NCI-H460 cells = test: Cell endocytosis of the conjugate by tumor cells (laser confocal); format: cell-based; conditions: 1 μg/mL
Description: NCI-H460 cells were taken as an example to observe behaviors of rTRAIL mutant-vcMMAE conjugate in tumor cells by laser confocal technology, including the following steps:
a) A coverslip was immersed with 1M HCl and 70% ethanol, subjected to ultrasonic treatment for 30 min, washed for 5-6 times with double distilled water and sterilized for later use;
b) Well-sterilized coverslip was placed in 24-well plate, and cells were plated at 10^4 cells/well and cultured overnight at 37° C.;
c) Administration: N109C-vcMMAE and S96C-vcMMAE were diluted respectively to a final concentration of 1 μg/mL, and the cells were treated according to step d) at different time points (1st, 4th, 8th and 12th hour), while drug-free culture medium was used for the blank control group; d) The coverslip was washed with cold PBS for 3 times and then fixed with 4% paraformaldehyde for 10 min at room temperature; e) PBS was used to wash the coverslip for another 3 times; f) 0.1% Triton X-100 was added to permeabilize for 10 min at room temperature; g) 2% BSA was added to block for 30 min after 3 times washing with PBS; h) Primary antibody incubation: rabbit anti-human rTRAIL polyclonal antibody was diluted with 1% BSA/PBS to 1 μg/mL and incubated for 45 min at room temperature; i) Secondary antibody incubation: FITC-labeled goat anti-rabbit secondary antibody was diluted 500-fold with 1% BSA/PBS and incubated for 45 min at room temperature; j) Staining cell nucleus with DAPI: after PBS washing (3 times), DAPI diluted 1000-fold with PBS was added dropwise on each coverslip (it was appropriate to just cover the cells), and the coverslip was incubated for about 2 min at 25° C.; k) Mounting: after PBS washing, one drop of Anti-fade Fluorescence Mounting Medium was added on the coverslip, then the coverslip was placed upside down on a glass slide and then sealed with nail polish around the coverslip; l) Cofocal detection: the detection result was shown in FIG. 8.

B1: N109C-vcMMAE: rTRAIL N109C mutant trimer coupled via maleimide-modified valine-citrulline linker to 1-3 MMAE molecules (conjugate)
chain: TSEETISTVQEKQQCISPLVRERGPQRVAAHITGTRGRSNTLSSPNSKNEKALGRKINSWESSRSGHSFLSNLHLRNGELVIHEKGFYYIYSQTYFRFQEEIKENTKNDKQMVQYIYKYTSYPDPILLMKSARNSCWSKDAEYGLYSIYQGGIFELKENDRIFVSVTNEHLIDMDHEASFFGAFLVG
modifications: non-natural residues
notes: rTRAIL N109C mutant trimer coupled via maleimide-modified valine-citrulline linker to 1-3 MMAE molecules
- killing ability (MCF-7 cells): stronger killing ability than S96C-vcMMAE
- distribution of fluorescence in mice ([1]; 3rd day): most of the fluorescence had gathered on tumor site
- distribution of fluorescence in mice ([1]; 4th day): only the tumor site emitted fluorescence
- tumor-targeting effect ([1]; in vivo imaging over 4 days and isolated tissues): excellent tumor-targeting effect
- killing ability (Hela cells): stronger killing ability than S96C-vcMMAE
- endocytosis by tumor cells (confocal) (NCI-H460 cells; 1 hour after administration): a lot of N109C-vcMMAE had entered the cells
- endocytosis by tumor cells (confocal) (NCI-H460 cells; 4 hours): more and more N109C-vcMMAE entered the cells and began to aggregate slowly
- endocytosis by tumor cells (confocal) (NCI-H460 cells; 8 hours): more aggregating points emerging inside the cells
- endocytosis by tumor cells and apoptosis (confocal) (NCI-H460 cells; 12 hours): aggregating points inside the cells decreased gradually and cell apoptosis began to occur

— patent US9617326B2, “RTRAIL mutant and monomethyl auristatin E conjugate thereof” (Zhejiang University, priority 2012, dated 2017)
